# Literature values, collected in patent US7776558B2, “Human G protein-coupled receptor and modulators thereof for the treatment of cell death-related disorders” (Arena Pharmaceuticals, Inc., priority 2003, dated 2010).
# Experiments:
# [1] = molecular target: T1, FPRL2 (Homo sapiens, UniProt P25089); settings: cited from earlier work
# T1 sequence (P25089 1-353): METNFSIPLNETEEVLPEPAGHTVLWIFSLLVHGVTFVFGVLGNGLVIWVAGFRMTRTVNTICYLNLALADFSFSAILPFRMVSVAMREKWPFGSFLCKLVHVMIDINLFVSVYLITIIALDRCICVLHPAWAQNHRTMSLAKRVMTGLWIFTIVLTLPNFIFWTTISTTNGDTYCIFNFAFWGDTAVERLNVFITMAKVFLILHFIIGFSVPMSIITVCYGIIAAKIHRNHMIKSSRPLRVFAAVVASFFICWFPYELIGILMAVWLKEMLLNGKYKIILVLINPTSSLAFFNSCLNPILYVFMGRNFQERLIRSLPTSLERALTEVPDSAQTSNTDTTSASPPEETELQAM
# [2] = molecular target: T2, FPRL2 on mature human dendritic cells (Homo sapiens, UniProt P25089); settings: Yang et al. 2002; cited from earlier work
# T2 construct: host or cells: mature human dendritic cells
# T2 sequence (P25089 1-353): T1 sequence (P25089 1-353)
Molecule,Ligand status at FPRL2 [1],Binding to FPRL2 [2],Intracellular Ca2+ [2]
CCCCC[C@H](O)/C=C/C=C\C=C\C=C\[C@@H](O)[C@@H](O)CCCC(=O)O [lipoxin A4],shown not to be ligands for FPRL2,,
WKYMVm,,bind to FPRL2 on mature human dendritic cells,elicit an increase in intracellular Ca^2+
